Measurements as given in patent publication US20210122827A1 (GMAX BIOPHARM, published 2021).
Each block holds one binder with its values, some of them ahead of it.

What was measured:
[1] = biological target: T1, human glucagon receptor (human, UniProt P47871 26-477); assay: cell-based or functional assay
[2] = biological target: T1, human glucagon receptor; assay: FACS on CHO-DHFR-hGCGR cells, antibody at 500, 50 and 5 nM; control is blank CHO-DHFR- cells
Description: PBS containing 10 mM EDTA was used to detach the CHO-DHFR-hGCGR cells and 10⁵ cells/tube was dispensed into 1.5 mL EP tubes, and the supernatant was removed after centrifugation, The negative control sample was resuspended with a loading buffer (PBS, 2% FBS). For the positive control, 200 μL hGCGR antibody solution of specific concentrations was added to the cells and incubated at room temperature; after incubation, the cells were then centrifuged at 1500 rpm to remove the supernatant, washed with a FACS loading buffer and centrifuged again. The cells were resuspended with addition (200 μL/well) of a FITC labeled goat anti-mouse fluorescent antibody at 1:50 dilution (BD Pharmingen) and incubated at room temperature for 30 min in the dark. The supernatant was removed after centrifugation, and cells were washed with FACS loading buffer, centrifuged again, and resuspended with the loading buffer for FACS analysis.

IC50, antagonism of glucagon-activated hGCGR signaling, direct cAMP assay on CHO-DHFR- cells expressing human GCGR [1]: 139 nM
B1: hGCGR antibody L7H7 (antibody, V domains shown)
VH: QVQLVQSGAEVKKPGASVKVSCKASGYTFTEYTMHWVRQAPGQRLEWIGGINPDNGGPSYSQKFKGRVTITRDTSASTAYMELSSLRSEDTAVYYCAEETHDYDKFAYWGQGTLVTVSS
VL: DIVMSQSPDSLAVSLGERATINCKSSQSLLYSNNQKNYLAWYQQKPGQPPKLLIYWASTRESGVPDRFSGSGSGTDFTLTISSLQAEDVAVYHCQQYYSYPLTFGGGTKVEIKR

binding result [2]: binds
B2: mouse ascites antibody L4H4 (antibody, V domains shown)
VH: DVQLQESGPGLVKPSQSLSLTCTVTGYSITSDYAWTWIRQFPGNKLEWMGYISFTGTTSYTPSLKSRISITRDTSKNQFFLYLNSVTAEDTATYYCVRSVIFTIDSWGQGTSVTVSS
VL: DIQMTQSPASLSASVGETVTITCRASGNIHNYLTWFQQRRGKSPQLLVYNAKALADGVPSRFSGSGSGTEYSLKINSLQPEDFGDYYCLHFWSSPLTFGAGTKLELKR
notes: Murine antibody produced from mouse ascites; also called GCGR antibody L4H4
